Test results taken from patent publication US20200262877A1, “ION CHANNEL-BINDING PEPTIDES AND METHODS OF USE THEREOF” (priority 2017, published 2020).

What was measured:
5HT3a = molecular target: T1, 5HT3a (Homo sapiens, UniProt P46098); assay: Ion channel panel (IonWorks Barracuda): 5HT3a; assay type: cell-based
T1 construct: host or cells: HEK293 or CHO
T1 sequence (P46098 whole entry, looked up): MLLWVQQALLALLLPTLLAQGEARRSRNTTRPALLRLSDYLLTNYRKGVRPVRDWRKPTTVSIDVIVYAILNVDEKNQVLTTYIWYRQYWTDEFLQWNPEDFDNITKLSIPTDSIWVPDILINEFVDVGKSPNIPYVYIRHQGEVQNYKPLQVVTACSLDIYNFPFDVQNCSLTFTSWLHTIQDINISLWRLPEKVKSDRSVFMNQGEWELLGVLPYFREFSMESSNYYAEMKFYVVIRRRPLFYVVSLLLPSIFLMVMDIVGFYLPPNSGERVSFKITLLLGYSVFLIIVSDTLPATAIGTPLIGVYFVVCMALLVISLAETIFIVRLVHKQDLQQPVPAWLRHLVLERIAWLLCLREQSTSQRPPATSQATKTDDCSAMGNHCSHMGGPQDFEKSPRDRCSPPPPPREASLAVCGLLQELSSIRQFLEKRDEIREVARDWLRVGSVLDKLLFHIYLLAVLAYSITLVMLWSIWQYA
How it was run: (§1)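 Transfected HEK293 or CHO cells were exposed for at least 5 min to peptides at 200 nM and 20 μM final, tested in duplicate, in HEPES-buffered physiological saline. Activation was taken as peptide-plus-agonist current over control current ×100, and inhibition as 1 minus that ratio ×100. Each channel's control was its own reference compound.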

α3β4 = molecular target: T2, α3β4 (Homo sapiens, UniProt P30926+P32297); assay: Ion channel panel (IonWorks Barracuda): α3β4; assay type: cell-based; conditions: 100% = no change, <100% = inhibition
T2 construct: host or cells: HEK293 or CHO
How it was run: as §1

α4β2 = molecular target: T3, α4β2 (Homo sapiens, UniProt P17787+P43681); assay: Ion channel panel (IonWorks Barracuda): α4β2; assay type: cell-based; conditions: 100% = no change, <100% = inhibition
T3 construct: host or cells: HEK293 or CHO
How it was run: as §1

Cav2.1 = molecular target: T4, Cav2.1 (Homo sapiens, UniProt O00555); assay: cell-based; conditions: 100% = no change, <100% = inhibition
T4 construct: host or cells: HEK293 or CHO
How it was run: as §1

Cav2.2 = molecular target: T5, Cav2.2 (Homo sapiens, UniProt Q00975); assay: cell-based; conditions: 100% = no change, <100% = inhibition
T5 construct: host or cells: HEK293 or CHO
How it was run: as §1

Kv2.1 = molecular target: T6, Kv2.1 (Homo sapiens, UniProt Q14721); assay: cell-based; conditions: 100% = no change, <100% = inhibition
T6 construct: host or cells: HEK293 or CHO
How it was run: as §1

GABA = assay: Ion channel panel (IonWorks Barracuda): GABA; assay type: cell-based; conditions: 100% = no change, <100% = inhibition
How it was run: as §1

Nav1.5 = Nav1.5 (Homo sapiens, UniProt Q14524); assay: in vitro; conditions: 100% = no change; for Activity of Nav1.5 with peptide, expressed as a percentage of the reference compound: peptide at 0.2 μM; for Activity of Nav1.5 with peptide (percentage of the reference compound): peptide at 20 μM
How it was run: as §1

hERG = hERG (Homo sapiens, UniProt Q12809); assay: in vitro; conditions: 100% = no change, <100% = inhibition
How it was run: as §1

Kir2.1 = molecular target: T7, Kir2.1 (Homo sapiens, UniProt P63252); assay: Ion channel panel (IonWorks Barracuda): Kir2.1; assay type: cell-based; conditions: 100% = no change, <100% = inhibition
T7 construct: host or cells: HEK293 or CHO
How it was run: as §1

Kv1.1 = molecular target: T8, Kv1.1 (Homo sapiens, UniProt Q09470); assay: cell-based; assay type: cell-based; conditions: 100% = no change, <100% = inhibition
T8 construct: host or cells: HEK293 or CHO
How it was run: as §1

Kv1.2 = molecular target: T9, Kv1.2 (Homo sapiens, UniProt P16389); assay: cell-based; assay type: cell-based; conditions: 100% = no change, <100% = inhibition
T9 construct: host or cells: HEK293 or CHO
How it was run: as §1

Kv1.3 = molecular target: T10, Kv1.3 (Homo sapiens, UniProt P22001); assay: cell-based; assay type: cell-based; conditions: 100% = no change, <100% = inhibition
T10 construct: host or cells: HEK293 or CHO
How it was run: as §1

Nav1.7 = molecular target: T11, Nav1.7 (Homo sapiens, UniProt Q15858); assay: cell-based; assay type: cell-based; conditions: 100% = no change; for Activity of Nav1.7 with peptide, expressed as a percentage of the reference compound: peptide at 0.2 μM; for Activity of Nav1.7 with peptide (percentage of the reference compound): peptide at 20 μM
T11 construct: host or cells: HEK293 or CHO

NR2A = molecular target: T12, NR2A (Homo sapiens, UniProt Q12879); assay: Ion channel panel (IonWorks Barracuda): NR2A; assay type: cell-based; conditions: 100% = no change, <100% = inhibition
T12 construct: host or cells: HEK293 or CHO
How it was run: as §1

NR2B = molecular target: T13, NR2B (Homo sapiens, UniProt Q13224); assay: Ion channel panel (IonWorks Barracuda): NR2B; assay type: cell-based; conditions: 100% = no change, <100% = inhibition
T13 construct: host or cells: HEK293 or CHO
How it was run: as §1

TRPA1 = molecular target: T14, TRPA1 (Homo sapiens, UniProt O75762); assay: Ion channel panel (IonWorks Barracuda): TRPA1; assay type: cell-based; conditions: 100% = no change, <100% = inhibition
T14 construct: host or cells: HEK293 or CHO
How it was run: as §1

TRPV1 = molecular target: T15, TRPV1 (Homo sapiens, UniProt Q8NER1); assay: Ion channel panel (IonWorks Barracuda): TRPV1; assay type: cell-based; conditions: 100% = no change, <100% = inhibition
T15 construct: host or cells: HEK293 or CHO
How it was run: as §1

[1] = first of two Nav1.5 columns (probably TP1)
[2] = second of two Nav1.5 columns (probably TP2)
[3] = first of two Nav1.7 columns (probably TP1)
[4] = second of two Nav1.7 columns (probably TP2)

Sequence of Nav1.5 (Q14524 whole entry): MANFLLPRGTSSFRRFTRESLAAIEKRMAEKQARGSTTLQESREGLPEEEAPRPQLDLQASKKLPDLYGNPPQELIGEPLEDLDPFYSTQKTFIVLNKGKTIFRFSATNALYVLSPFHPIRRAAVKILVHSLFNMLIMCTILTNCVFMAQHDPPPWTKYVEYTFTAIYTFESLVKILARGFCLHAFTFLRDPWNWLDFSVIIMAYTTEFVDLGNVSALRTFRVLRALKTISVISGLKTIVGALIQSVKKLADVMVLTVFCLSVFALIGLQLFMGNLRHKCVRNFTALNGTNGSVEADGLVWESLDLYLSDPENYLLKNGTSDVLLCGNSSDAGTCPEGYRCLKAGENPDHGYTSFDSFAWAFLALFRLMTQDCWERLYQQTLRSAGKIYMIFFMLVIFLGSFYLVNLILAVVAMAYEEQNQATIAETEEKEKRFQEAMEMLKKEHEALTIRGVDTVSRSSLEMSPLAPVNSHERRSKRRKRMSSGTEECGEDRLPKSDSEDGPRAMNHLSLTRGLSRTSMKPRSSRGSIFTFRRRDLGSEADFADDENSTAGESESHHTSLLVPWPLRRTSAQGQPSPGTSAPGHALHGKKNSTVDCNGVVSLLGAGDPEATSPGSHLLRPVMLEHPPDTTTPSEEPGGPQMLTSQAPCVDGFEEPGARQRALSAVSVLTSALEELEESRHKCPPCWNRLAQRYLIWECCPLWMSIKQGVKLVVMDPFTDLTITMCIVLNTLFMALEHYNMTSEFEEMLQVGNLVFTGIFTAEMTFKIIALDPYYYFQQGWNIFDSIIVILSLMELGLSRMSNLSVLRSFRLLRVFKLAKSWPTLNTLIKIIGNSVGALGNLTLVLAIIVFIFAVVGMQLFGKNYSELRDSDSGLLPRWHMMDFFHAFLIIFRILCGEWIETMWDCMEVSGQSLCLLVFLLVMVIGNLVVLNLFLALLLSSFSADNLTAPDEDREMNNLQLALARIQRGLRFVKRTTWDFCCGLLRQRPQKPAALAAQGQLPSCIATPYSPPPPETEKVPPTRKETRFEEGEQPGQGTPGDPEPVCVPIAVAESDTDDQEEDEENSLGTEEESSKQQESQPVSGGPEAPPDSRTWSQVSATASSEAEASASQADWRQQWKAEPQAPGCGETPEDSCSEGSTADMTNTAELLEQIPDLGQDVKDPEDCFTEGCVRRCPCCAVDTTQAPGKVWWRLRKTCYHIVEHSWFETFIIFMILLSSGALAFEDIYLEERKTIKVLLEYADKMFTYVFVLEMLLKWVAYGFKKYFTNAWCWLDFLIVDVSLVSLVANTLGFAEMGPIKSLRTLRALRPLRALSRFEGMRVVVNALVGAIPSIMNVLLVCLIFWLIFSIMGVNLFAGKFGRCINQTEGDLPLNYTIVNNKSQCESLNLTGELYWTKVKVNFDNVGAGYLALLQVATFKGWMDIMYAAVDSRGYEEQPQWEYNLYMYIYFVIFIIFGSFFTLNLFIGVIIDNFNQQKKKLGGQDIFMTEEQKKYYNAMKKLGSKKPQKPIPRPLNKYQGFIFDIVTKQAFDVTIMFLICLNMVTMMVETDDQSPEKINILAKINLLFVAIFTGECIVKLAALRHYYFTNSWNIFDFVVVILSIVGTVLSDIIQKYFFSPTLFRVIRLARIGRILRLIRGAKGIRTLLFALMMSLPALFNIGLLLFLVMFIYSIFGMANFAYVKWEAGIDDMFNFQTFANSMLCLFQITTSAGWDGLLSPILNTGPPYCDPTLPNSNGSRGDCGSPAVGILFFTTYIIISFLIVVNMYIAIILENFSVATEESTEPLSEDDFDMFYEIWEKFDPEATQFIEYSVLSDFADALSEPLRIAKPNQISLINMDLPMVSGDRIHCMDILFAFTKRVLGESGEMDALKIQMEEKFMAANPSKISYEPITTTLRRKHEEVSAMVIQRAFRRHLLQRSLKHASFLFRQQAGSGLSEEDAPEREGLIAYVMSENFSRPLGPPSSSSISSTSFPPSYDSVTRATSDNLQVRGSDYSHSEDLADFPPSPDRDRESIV
T11 sequence (Q15858 whole entry): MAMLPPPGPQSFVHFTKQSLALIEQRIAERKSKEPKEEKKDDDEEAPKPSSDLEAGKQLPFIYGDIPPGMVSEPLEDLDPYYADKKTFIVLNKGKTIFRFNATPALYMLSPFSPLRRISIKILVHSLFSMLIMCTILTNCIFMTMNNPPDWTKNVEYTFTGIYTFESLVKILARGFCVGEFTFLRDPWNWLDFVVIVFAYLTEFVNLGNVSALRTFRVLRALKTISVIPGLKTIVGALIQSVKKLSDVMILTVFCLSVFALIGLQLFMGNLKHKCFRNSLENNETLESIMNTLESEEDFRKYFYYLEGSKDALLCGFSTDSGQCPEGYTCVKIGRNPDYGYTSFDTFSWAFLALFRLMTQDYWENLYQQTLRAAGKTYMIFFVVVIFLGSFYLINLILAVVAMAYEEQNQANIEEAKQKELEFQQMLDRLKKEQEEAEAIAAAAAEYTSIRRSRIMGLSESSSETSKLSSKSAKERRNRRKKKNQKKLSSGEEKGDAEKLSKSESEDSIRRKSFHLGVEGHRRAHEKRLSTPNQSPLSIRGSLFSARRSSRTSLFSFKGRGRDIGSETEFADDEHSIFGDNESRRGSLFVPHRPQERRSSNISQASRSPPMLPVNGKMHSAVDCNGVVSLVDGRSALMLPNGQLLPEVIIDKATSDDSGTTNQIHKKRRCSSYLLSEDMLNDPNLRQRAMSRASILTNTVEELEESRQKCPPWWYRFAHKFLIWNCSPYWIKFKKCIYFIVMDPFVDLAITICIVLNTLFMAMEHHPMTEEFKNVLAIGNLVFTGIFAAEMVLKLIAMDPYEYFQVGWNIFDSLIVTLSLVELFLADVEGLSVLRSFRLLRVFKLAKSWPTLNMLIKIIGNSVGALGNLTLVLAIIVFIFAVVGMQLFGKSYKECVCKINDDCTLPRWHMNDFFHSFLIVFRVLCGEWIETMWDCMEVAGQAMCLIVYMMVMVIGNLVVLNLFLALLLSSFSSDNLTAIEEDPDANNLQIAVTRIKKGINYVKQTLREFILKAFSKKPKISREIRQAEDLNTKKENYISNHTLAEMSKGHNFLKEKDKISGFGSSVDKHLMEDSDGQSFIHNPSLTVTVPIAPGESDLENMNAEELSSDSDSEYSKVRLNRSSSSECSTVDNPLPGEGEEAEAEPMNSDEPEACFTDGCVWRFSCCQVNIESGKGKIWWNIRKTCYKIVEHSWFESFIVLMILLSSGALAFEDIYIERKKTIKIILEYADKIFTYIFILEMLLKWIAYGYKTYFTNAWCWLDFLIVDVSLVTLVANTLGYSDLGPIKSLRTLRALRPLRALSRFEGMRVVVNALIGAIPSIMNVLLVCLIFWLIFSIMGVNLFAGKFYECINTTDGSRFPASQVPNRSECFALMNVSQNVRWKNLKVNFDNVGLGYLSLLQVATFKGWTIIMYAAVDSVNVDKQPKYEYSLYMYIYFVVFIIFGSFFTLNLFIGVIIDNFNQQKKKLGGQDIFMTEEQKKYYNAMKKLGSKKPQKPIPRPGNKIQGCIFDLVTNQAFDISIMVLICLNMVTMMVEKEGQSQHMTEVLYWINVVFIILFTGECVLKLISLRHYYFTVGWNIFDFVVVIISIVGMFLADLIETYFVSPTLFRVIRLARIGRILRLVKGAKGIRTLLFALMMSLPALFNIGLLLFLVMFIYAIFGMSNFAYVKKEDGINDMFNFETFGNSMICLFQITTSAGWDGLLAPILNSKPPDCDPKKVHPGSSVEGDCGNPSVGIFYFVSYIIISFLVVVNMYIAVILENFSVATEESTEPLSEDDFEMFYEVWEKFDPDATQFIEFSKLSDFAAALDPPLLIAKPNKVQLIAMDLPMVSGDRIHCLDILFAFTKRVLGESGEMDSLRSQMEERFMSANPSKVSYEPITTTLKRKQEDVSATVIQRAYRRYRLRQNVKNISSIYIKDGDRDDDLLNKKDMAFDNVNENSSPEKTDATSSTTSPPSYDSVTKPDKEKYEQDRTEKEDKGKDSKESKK
T15 sequence (Q8NER1 whole entry): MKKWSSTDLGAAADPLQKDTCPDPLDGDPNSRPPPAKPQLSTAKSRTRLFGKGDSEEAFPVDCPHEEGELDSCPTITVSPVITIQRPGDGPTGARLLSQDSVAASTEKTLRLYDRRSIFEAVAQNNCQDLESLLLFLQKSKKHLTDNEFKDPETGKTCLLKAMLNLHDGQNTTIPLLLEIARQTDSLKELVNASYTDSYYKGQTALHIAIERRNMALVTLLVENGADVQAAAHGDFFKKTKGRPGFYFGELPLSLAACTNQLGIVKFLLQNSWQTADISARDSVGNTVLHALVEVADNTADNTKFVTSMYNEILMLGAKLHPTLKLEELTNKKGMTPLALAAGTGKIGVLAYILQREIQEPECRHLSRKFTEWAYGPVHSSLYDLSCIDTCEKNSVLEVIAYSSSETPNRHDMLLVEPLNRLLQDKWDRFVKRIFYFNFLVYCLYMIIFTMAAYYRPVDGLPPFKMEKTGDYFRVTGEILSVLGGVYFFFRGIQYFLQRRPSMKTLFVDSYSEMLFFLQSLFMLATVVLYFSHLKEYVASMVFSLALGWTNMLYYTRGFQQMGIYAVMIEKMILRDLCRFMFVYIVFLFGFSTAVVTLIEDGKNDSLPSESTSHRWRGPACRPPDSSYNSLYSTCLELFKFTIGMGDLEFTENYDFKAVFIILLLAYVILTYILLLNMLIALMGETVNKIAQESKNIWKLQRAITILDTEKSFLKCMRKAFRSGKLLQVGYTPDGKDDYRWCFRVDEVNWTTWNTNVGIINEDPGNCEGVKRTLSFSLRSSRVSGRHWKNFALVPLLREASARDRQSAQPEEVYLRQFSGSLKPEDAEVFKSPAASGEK

Substance: 16 (GSQFCGTNGKPCVNGQCCGALRCVVTYHYADGVCLKMNP) [compound 16]
- Activity of 5HT3a with peptide (percentage of the reference compound) (5HT3a): 103%
- Activity of 5HT3a with peptide, expressed as a percentage of the reference compound (5HT3a): 114%
- Activity of a3b4 with peptide, expressed as a percentage of the reference compound (α3β4; peptide at 0.2 μM): 100%
- Activity of a3b4 with peptide (percentage of the reference compound) (α3β4; peptide at 20 μM): 95%
- Activity of a4b2 with peptide, expressed as a percentage of the reference compound (α4β2; peptide at 0.2 μM): 83%
- Activity of a4b2 with peptide (percentage of the reference compound) (α4β2; peptide at 20 μM): 72%
- Activity of Cav2.1 with peptide, expressed as a percentage of the reference compound (Cav2.1; peptide at 0.2 μM): 113%
- Activity of Cav2.1 with peptide (percentage of the reference compound) (Cav2.1; peptide at 20 μM): 92%
- Activity of Cav2.2 with peptide, expressed as a percentage of the reference compound (Cav2.2; peptide at 0.2 μM): 124%
- Activity of Cav2.2 with peptide (percentage of the reference compound) (Cav2.2; peptide at 20 μM): 104%
- Activity of Kv2.1 with peptide, expressed as a percentage of the reference compound (Kv2.1; peptide at 0.2 μM): 114%
- Activity of Kv2.1 with peptide (percentage of the reference compound) (Kv2.1; peptide at 20 μM): 98%
- Activity of GABA with peptide, expressed as a percentage of the reference compound (GABA; peptide at 0.2 μM): 102%
- Activity of GABA with peptide (percentage of the reference compound) (GABA; peptide at 20 μM): 109%
- Activity of Nav1.5 with peptide, expressed as a percentage of the reference compound (Nav1.5; [1]): 107%
- Activity of Nav1.5 with peptide, expressed as a percentage of the reference compound (Nav1.5; [2]): 104%
- Activity of Nav1.5 with peptide (percentage of the reference compound) (Nav1.5; [1]): 93%
- Activity of Nav1.5 with peptide (percentage of the reference compound) (Nav1.5; [2]): 93%
- Activity of hERG with peptide, expressed as a percentage of the reference compound (hERG; peptide at 0.2 μM): 74%
- Activity of hERG with peptide (percentage of the reference compound) (hERG; peptide at 20 μM): 71%
- Activity of Kir2.1 with peptide, expressed as a percentage of the reference compound (Kir2.1; peptide at 0.2 μM): 98%
- Activity of Kir2.1 with peptide (percentage of the reference compound) (Kir2.1; peptide at 20 μM): 92%
- Activity of Kv1.1 with peptide, expressed as a percentage of the reference compound (Kv1.1; peptide at 0.2 μM): 84%
- Activity of Kv1.1 with peptide (percentage of the reference compound) (Kv1.1; peptide at 20 μM): 67%
- Activity of Kv1.2 with peptide, expressed as a percentage of the reference compound (Kv1.2; peptide at 0.2 μM): 78%
- Activity of Kv1.2 with peptide (percentage of the reference compound) (Kv1.2; peptide at 20 μM): 61%
- Activity of Kv1.3 with peptide, expressed as a percentage of the reference compound (Kv1.3; peptide at 0.2 μM): 92%
- Activity of Kv1.3 with peptide (percentage of the reference compound) (Kv1.3; peptide at 20 μM): 92%
- Activity of Nav1.7 with peptide, expressed as a percentage of the reference compound (Nav1.7; [3]): 86%
- Activity of Nav1.7 with peptide, expressed as a percentage of the reference compound (Nav1.7; [4]): 91%
- Activity of Nav1.7 with peptide (percentage of the reference compound) (Nav1.7; [3]): 66%
- Activity of Nav1.7 with peptide (percentage of the reference compound) (Nav1.7; [4]): 43%
- Activity of NR2A with peptide, expressed as a percentage of the reference compound (NR2A; peptide at 0.2 μM): 101%
- Activity of NR2A with peptide (percentage of the reference compound) (NR2A; peptide at 20 μM): 95%
- Activity of NR2B with peptide, expressed as a percentage of the reference compound (NR2B; peptide at 0.2 μM): 88%
- Activity of NR2B with peptide (percentage of the reference compound) (NR2B; peptide at 20 μM): 91%
- Activity of TRPA1 with peptide, expressed as a percentage of the reference compound (TRPA1; peptide at 0.2 μM): 99%
- Activity of TRPA1 with peptide (percentage of the reference compound) (TRPA1; peptide at 20 μM): 116%
- Activity of TRPV1 with peptide, expressed as a percentage of the reference compound (TRPV1; peptide at 0.2 μM): 107%
- Activity of TRPV1 with peptide (percentage of the reference compound) (TRPV1; peptide at 20 μM): 88%
